What was measured:
Experiment in all cases: enzyme inhibition, pNA substrate
[1] = molecular target: T1, Chymotrypsin, from human pancreas (human, UniProt P17538 19-263)
T1 construct: purified natural enzyme, bought

[2] = molecular target: T2, Chymase, from human skin (human, UniProt P23946 22-247)
T2 construct: purified natural enzyme, bought
T2 sequence (looked up): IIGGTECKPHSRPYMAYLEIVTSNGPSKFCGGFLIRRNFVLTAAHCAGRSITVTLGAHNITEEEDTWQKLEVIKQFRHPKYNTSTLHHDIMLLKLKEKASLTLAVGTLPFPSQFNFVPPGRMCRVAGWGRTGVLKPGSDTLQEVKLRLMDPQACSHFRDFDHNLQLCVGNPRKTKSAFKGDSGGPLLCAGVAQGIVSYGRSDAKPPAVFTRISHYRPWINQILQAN

[3] = molecular target: T3, Coagulation Factor Xa, from uman plasma (human, UniProt P00742 41-179; P00742 235-488, limits assumed)
T3 construct: purified natural enzyme, bought; also called FXa
T3 sequence (P00742 41-179 limits assumed, chain 1 of 2): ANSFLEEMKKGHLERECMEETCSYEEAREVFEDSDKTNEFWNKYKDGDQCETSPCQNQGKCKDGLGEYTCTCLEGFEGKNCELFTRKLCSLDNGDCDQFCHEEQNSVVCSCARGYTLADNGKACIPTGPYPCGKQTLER
T3 sequence (P00742 235-488 limits assumed, chain 2 of 2): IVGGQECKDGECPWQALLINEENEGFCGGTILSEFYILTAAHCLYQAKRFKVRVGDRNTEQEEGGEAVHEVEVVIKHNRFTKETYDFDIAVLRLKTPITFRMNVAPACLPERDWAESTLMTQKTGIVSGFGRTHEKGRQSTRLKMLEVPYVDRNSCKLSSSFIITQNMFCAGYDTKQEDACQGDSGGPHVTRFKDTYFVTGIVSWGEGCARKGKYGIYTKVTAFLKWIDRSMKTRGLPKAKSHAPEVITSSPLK

[4] = molecular target: T4, Urokinase from human urine (human, UniProt P00749 21-431, limits assumed)
T4 construct: purified natural enzyme, bought

[5] = molecular target: Thrombin, from Human Plasma, high activity (human, UniProt P00734 328-622)
[6] = molecular target: T5, CathepsinG, from human neutrophils (human, UniProt P08311 21-244)
T5 construct: purified natural enzyme, bought
T5 sequence (looked up): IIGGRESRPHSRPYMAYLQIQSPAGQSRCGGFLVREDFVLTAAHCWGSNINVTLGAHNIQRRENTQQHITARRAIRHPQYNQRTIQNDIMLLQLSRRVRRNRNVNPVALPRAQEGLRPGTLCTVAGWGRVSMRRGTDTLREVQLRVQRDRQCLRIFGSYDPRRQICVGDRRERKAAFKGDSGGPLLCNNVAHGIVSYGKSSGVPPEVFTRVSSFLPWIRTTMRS

T1 sequence (P17538 19-263): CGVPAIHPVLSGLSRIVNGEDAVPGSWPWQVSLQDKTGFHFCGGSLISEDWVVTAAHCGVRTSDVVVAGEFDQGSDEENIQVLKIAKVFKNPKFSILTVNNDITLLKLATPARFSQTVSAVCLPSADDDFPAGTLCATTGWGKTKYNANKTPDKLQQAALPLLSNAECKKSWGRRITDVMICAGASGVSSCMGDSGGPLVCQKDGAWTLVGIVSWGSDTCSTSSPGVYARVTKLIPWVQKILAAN

B1: Example 153 (peptide)
peptide: XCTASXPPQCQ
HELM: PEPTIDE1{[O=C([C@H](CCc1ccccc1)N[*:1])[*:2]].C.T.A.S.[CCCCCCCC[C@H](N[*:1])C(=O)[*:2]].P.P.Q.C.Q.[dP].P}$PEPTIDE1,PEPTIDE1,2:R3-10:R3|PEPTIDE1,PEPTIDE1,1:R1-13:R2$$$V2.0
SMILES: CCCCCCCC[C@@H]1NC(=O)[C@H](CO)NC(=O)[C@H](C)NC(=O)[C@H]([C@@H](C)O)NC(=O)[C@@H]2CSSC[C@H](NC(=O)[C@H](CCC(N)=O)NC(=O)[C@@H]3CCCN3C(=O)[C@@H]3CCCN3C1=O)C(=O)N[C@@H](CCC(N)=O)C(=O)N1CCC[C@@H]1C(=O)N1CCC[C@H]1C(=O)N[C@@H](CCc1ccccc1)C(=O)N2
[1]
  % inhibition at 100 µM: 84%
[2]
  % inhibition at 100 µM: 0%
[3]
  % inhibition at 100 µM: 11%
[4]
  % inhibition at 100 µM: 16%
[5]
  % inhibition at 100 µM: 16%
[6]
  % inhibition at 100 µM: 56%

Reference: patent US20140213531A1 (POLYPHOR, published 2014)
